Results: PMC5856539

Biological target: GFP-tagged Ska complex (Ska complex^Ska3-GFP) (human) (UniProt Q96BD8)
Test: SEC-MALS

**Q.** How did the stoichiometry N turn out when “GFP-tagged Ska complex (Ska complex^Ska3-GFP) (from UniProt Q96BD8;Q8WVK7;Q8IX90)” was run?
**A.** 2
